Experimental findings from article PMC12416549 (2024) are described below.

Sequences and labels used below:
T1: TNFR1 (Homo sapiens, UniProt P19438)
T1 chain: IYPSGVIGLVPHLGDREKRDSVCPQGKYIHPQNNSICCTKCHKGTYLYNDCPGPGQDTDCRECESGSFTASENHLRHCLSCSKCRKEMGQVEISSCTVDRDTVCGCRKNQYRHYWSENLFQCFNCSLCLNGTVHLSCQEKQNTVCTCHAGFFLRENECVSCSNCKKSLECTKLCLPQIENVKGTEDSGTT

B1: V71I (designed binder)
chain: MTLQELLREEALRRAEAEAFRYALELLAEKFPEQKEYLLDLAEEIESQIRSLSGVDVEDVRKFLDKEWAWIKELLAEHPAELAEVEAARAARLAELRAEVEAKVAA
B2: L64G (designed binder)
chain: MTLQELLREEALRRAEAEAFRYALELLAEKFPEQKEYLLDLAEEIESQIRSLSGVDVEDVRKFGDKEWAWVKELLAEHPAELAEVEAARAARLAELRAEVEAKVAA
B3: V100I (designed binder)
chain: MTLQELLREEALRRAEAEAFRYALELLAEKFPEQKEYLLDLAEEIESQIRSLSGVDVEDVRKFLDKEWAWVKELLAEHPAELAEVEAARAARLAELRAEIEAKVAA
B4: L74C (designed binder)
chain: MTLQELLREEALRRAEAEAFRYALELLAEKFPEQKEYLLDLAEEIESQIRSLSGVDVEDVRKFLDKEWAWVKECLAEHPAELAEVEAARAARLAELRAEVEAKVAA
B5: L24P (designed binder)
chain: MTLQELLREEALRRAEAEAFRYAPELLAEKFPEQKEYLLDLAEEIESQIRSLSGVDVEDVRKFLDKEWAWVKELLAEHPAELAEVEAARAARLAELRAEVEAKVAA
B6: H78S (designed binder)
chain: MTLQELLREEALRRAEAEAFRYALELLAEKFPEQKEYLLDLAEEIESQIRSLSGVDVEDVRKFLDKEWAWVKELLAESPAELAEVEAARAARLAELRAEVEAKVAA
B7: E44N (designed binder)
chain: MTLQELLREEALRRAEAEAFRYALELLAEKFPEQKEYLLDLAENIESQIRSLSGVDVEDVRKFLDKEWAWVKELLAEHPAELAEVEAARAARLAELRAEVEAKVAA
B8: A106Y (designed binder)
chain: MTLQELLREEALRRAEAEAFRYALELLAEKFPEQKEYLLDLAEEIESQIRSLSGVDVEDVRKFLDKEWAWVKELLAEHPAELAEVEAARAARLAELRAEVEAKVAY
B9: A69E (designed binder)
chain: MTLQELLREEALRRAEAEAFRYALELLAEKFPEQKEYLLDLAEEIESQIRSLSGVDVEDVRKFLDKEWEWVKELLAEHPAELAEVEAARAARLAELRAEVEAKVAA
B10: S53H (designed binder)
chain: MTLQELLREEALRRAEAEAFRYALELLAEKFPEQKEYLLDLAEEIESQIRSLHGVDVEDVRKFLDKEWAWVKELLAEHPAELAEVEAARAARLAELRAEVEAKVAA
B11: L39R (designed binder)
chain: MTLQELLREEALRRAEAEAFRYALELLAEKFPEQKEYLRDLAEEIESQIRSLSGVDVEDVRKFLDKEWAWVKELLAEHPAELAEVEAARAARLAELRAEVEAKVAA
B12: L75K (designed binder)
chain: MTLQELLREEALRRAEAEAFRYALELLAEKFPEQKEYLLDLAEEIESQIRSLSGVDVEDVRKFLDKEWAWVKELKAEHPAELAEVEAARAARLAELRAEVEAKVAA
B13: L52A (designed binder)
chain: MTLQELLREEALRRAEAEAFRYALELLAEKFPEQKEYLLDLAEEIESQIRSASGVDVEDVRKFLDKEWAWVKELLAEHPAELAEVEAARAARLAELRAEVEAKVAA
B14: D65A (designed binder)
chain: MTLQELLREEALRRAEAEAFRYALELLAEKFPEQKEYLLDLAEEIESQIRSLSGVDVEDVRKFLAKEWAWVKELLAEHPAELAEVEAARAARLAELRAEVEAKVAA
B15: R89Q (designed binder)
chain: MTLQELLREEALRRAEAEAFRYALELLAEKFPEQKEYLLDLAEEIESQIRSLSGVDVEDVRKFLDKEWAWVKELLAEHPAELAEVEAAQAARLAELRAEVEAKVAA
B16: Q48S (designed binder)
chain: MTLQELLREEALRRAEAEAFRYALELLAEKFPEQKEYLLDLAEEIESSIRSLSGVDVEDVRKFLDKEWAWVKELLAEHPAELAEVEAARAARLAELRAEVEAKVAA
B17: W68K (designed binder)
chain: MTLQELLREEALRRAEAEAFRYALELLAEKFPEQKEYLLDLAEEIESQIRSLSGVDVEDVRKFLDKEKAWVKELLAEHPAELAEVEAARAARLAELRAEVEAKVAA
B18: L74D (designed binder)
chain: MTLQELLREEALRRAEAEAFRYALELLAEKFPEQKEYLLDLAEEIESQIRSLSGVDVEDVRKFLDKEWAWVKEDLAEHPAELAEVEAARAARLAELRAEVEAKVAA
B19: L74P (designed binder)
chain: MTLQELLREEALRRAEAEAFRYALELLAEKFPEQKEYLLDLAEEIESQIRSLSGVDVEDVRKFLDKEWAWVKEPLAEHPAELAEVEAARAARLAELRAEVEAKVAA
B20: R8C (designed binder)
chain: MTLQELLCEEALRRAEAEAFRYALELLAEKFPEQKEYLLDLAEEIESQIRSLSGVDVEDVRKFLDKEWAWVKELLAEHPAELAEVEAARAARLAELRAEVEAKVAA
B21: E84F (designed binder)
chain: MTLQELLREEALRRAEAEAFRYALELLAEKFPEQKEYLLDLAEEIESQIRSLSGVDVEDVRKFLDKEWAWVKELLAEHPAELAFVEAARAARLAELRAEVEAKVAA
B22: E16Y (designed binder)
chain: MTLQELLREEALRRAYAEAFRYALELLAEKFPEQKEYLLDLAEEIESQIRSLSGVDVEDVRKFLDKEWAWVKELLAEHPAELAEVEAARAARLAELRAEVEAKVAA
B23: R89E (designed binder)
chain: MTLQELLREEALRRAEAEAFRYALELLAEKFPEQKEYLLDLAEEIESQIRSLSGVDVEDVRKFLDKEWAWVKELLAEHPAELAEVEAAEAARLAELRAEVEAKVAA
B24: K103W (designed binder)
chain: MTLQELLREEALRRAEAEAFRYALELLAEKFPEQKEYLLDLAEEIESQIRSLSGVDVEDVRKFLDKEWAWVKELLAEHPAELAEVEAARAARLAELRAEVEAWVAA
B25: A94V (designed binder)
chain: MTLQELLREEALRRAEAEAFRYALELLAEKFPEQKEYLLDLAEEIESQIRSLSGVDVEDVRKFLDKEWAWVKELLAEHPAELAEVEAARAARLVELRAEVEAKVAA

The assay concerns the target T1, TNFR1. The experiment in a line: yeast display SC50.
For B1, the “apparent Kd (screen)” value was found to be 539 pM.

B2: the “apparent Kd (screen)” value stood at 1690 pM.

Take B3: the “apparent Kd (screen)” value is 653 pM.

With B4, the “apparent Kd (screen)” value was found to be 1400 pM.

Turning to B5, the “apparent Kd (screen)” value came to 26900 pM.

Take B6: the “apparent Kd (screen)” value was 790 pM.

As to B7, the “apparent Kd (screen)” value was 24400 pM.

B8: the “apparent Kd (screen)” value came to 790 pM.

B9: the “apparent Kd (screen)” value came out at 956 pM.

Regarding B10, the “apparent Kd (screen)” value came out at 653 pM.

B11: the “apparent Kd (screen)” value is 1400 pM.

For the molecule B12, the “apparent Kd (screen)” value turned out to be 593 pM.

As for B13, the “apparent Kd (screen)” value worked out at 446 pM.

Consider B14, for which the “apparent Kd (screen)” value was 653 pM.

As to B15, the “apparent Kd (screen)” value stood at 593 pM.

Turning to B16, the “apparent Kd (screen)” value amounted to 593 pM.

Take B17: the “apparent Kd (screen)” value was 12500 pM.

As for B18, the “apparent Kd (screen)” value came to 3000 pM.

Turning to B19, the “apparent Kd (screen)” value came to 13800 pM.

On to B20, for which the “apparent Kd (screen)” value stood at 593 pM.

Consider B21, for which the “apparent Kd (screen)” value was found to be 593 pM.

In the case of B22, the “apparent Kd (screen)” value came to 446 pM.

Consider B23, for which the “apparent Kd (screen)” value was found to be 956 pM.

B24: the “apparent Kd (screen)” value worked out at 718 pM.

Take B25: the “apparent Kd (screen)” value is 539 pM.
